The values below come from patent US20040072168A1, “Novel deoxynucleoside kinase enzyme variants” (priority 2000, published 2004).

Data set [1] relates to TK deficient E. coli strain KY895. Put plainly: Determination of LD100 of nucleoside analogues on M9 plates, E. coli KY895 transformed with kinase variant plasmids. It counts as cell-based. The note with it: KY895 expressing the variant. The source says: The mutagenized PCR fragments were purified by the PCR Kit from Boehringer Mannhein, cut with BamHI and EcoRI and sub-cloned into the multiple cloning site of the pGEX-2T plasmid vector. The TK deficient E. coli strain KY895 [F tdk-1 ilv] [Igarashi K, Hiraga S & Yura T: A deoxythymidine kinase deficient mutant of Eschericha coli. II. Mapping and transduction studies with phage Φ80; Genetics 1967 57 643-6541, was electro-transformed with the ligation mix, using standard techniques, and plated on LB-ampicillin (100 μg/ml) plates.
Overnight cultures of these colonies were diluted 200-fold in 10% glycerol and 2 μl drops of the dilution were spotted on M9 minimal medium plates [Ausubel F, Brent R, Kingston R E, Moore D D, Seidman J G, Smith J A & Struhl K (Eds.): Short protocols in molecular biology; Wiley, USA, 3rd Edition, 1995, p.1-2] supplemented with 0.2% glucose, 40 μg/ml isoleucine, 40 μg/ml valine, 100 μg/ml ampicillin and with or without nucleoside analogues.
All clones with increased sensitivity towards at least one nucleoside analogue were tested on M9 plates with logarithmic dilution of the nucleoside analogues to determine the lethal dose (LD100) of the nucleoside analogues, at which no growths of bacteria could be seen.
Plates were prepared by mixing the medium with the analogues at the lowest temperature possible, before pouring the plates.

The conditions of data set [2]: cited from earlier work.

B1: Dm-dNK: wild-type Drosophila melanogaster deoxyribonucleoside kinase (SEQ ID NO: 1) (protein)
chain: MAEAASCARKGTKYAEGTQPFTVLIEGNIGSGKTTYLNHFEKYKNDICLLTEPVEKWRNVNGVNLLELMYKDPKKWAMPFQSYVTLTMLQSHTAPTNKKLKIMERSIFSARYCFVENMRRNGSLEQGMYNTLEEWYKFIEESIHVQADLIIYLRTSPEVAYERIRQRARSEESCVPLKYLQELHELHEDWLIHQRRPQSCKVLVLDADLNLENIGTEYQRSESSIFDAISSNQQPSPVLVSPSKRQRVAR
modifications: Drosophila melanogaster; CDS (1)..(750)
In the case of B1, in data set [1] (lethal dose (no growth of bacteria) of araC, range 3.16-1000 μM), the “LD100 araC” value was found to be 1000 µM. In addition, in data set [1] (lethal dose of 2CdA, range 0.0316-100 μM, second line of last column), the “LD100 2CdA” value is 100 µM. Moreover, the “LD100 AZT” value in data set [1] (lethal dose of AZT, range 0.01-100 μM) turned out to be 100 µM. The “LD100 araA” value in data set [1] (lethal dose of araA, range 10-1000 μM, third line of last column) is >1000 µM. Besides, the “LD100 ddA” value in data set [1] (lethal dose of ddA, range 0.316-31.6 μM) was 31.6 µM. Further, the “LD100 ddC” value in data set [1] (lethal dose of ddC, range 10-3500 μM, first line of last column) is >3500 µM. The “catalytic rate of deoxyribonucleoside phosphorylation, higher than reported for any of the mammalian deoxyribonucleoside kinases” value in data set [2] (depending on the substrate) is recorded as 4-20,000 fold. The “turnover of thymidine, higher than catalysed by HSV1 thymidine kinase” value in data set [2] (thymidine, versus HSV1-TK) is reported as 70 fold.
